From paper PMC11618457
Like-named read-outs stand apart in the source and are kept apart here.

T1: Zur(Zn) Cy5-C113 (Escherichia coli, UniProt P0AC51 1-171, C17S;C152S;C158S)
T1 sequence: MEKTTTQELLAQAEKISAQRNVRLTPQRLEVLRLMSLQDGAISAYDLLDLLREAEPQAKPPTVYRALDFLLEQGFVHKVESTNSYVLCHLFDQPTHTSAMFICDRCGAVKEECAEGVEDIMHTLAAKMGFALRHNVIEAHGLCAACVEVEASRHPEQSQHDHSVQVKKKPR

T2: Zur(Zn) D49A Cy5-C113 (Escherichia coli, UniProt P0AC51 1-171, C17S;D49A;C152S;C158S)
T2 sequence: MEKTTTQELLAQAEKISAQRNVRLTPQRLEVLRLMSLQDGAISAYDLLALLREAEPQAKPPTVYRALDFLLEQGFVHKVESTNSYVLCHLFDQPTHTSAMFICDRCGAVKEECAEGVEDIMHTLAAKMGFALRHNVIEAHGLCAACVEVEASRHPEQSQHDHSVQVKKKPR

T3: Zur(Zn) Cy5-C158 (Escherichia coli, UniProt P0AC51 1-171, C17S;C113S;C152S)
T3 sequence: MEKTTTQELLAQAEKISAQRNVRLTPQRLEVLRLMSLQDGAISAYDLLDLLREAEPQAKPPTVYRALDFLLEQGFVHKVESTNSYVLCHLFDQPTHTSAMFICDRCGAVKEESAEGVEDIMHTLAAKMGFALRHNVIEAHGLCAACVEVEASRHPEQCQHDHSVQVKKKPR


Experiments:
Test in all cases: smFRET
[1] = molecular target: T1, Zur(Zn) Cy5-C113
[2] = molecular target: T2, Zur(Zn) D49A Cy5-C113
[3] = molecular target: T2, Zur(Zn) D49A Cy5-C113; remark: listed apart in the source
[4] = molecular target: T1, Zur(Zn) Cy5-C113; remark: listed apart in the source
[5] = molecular target: T3, Zur(Zn) Cy5-C158

Binder	binding result [1]	binding result [2]	binding result [3]	binding result [4]	binding result [5]
31-bp znuCB promoter DNA (dsDNA) DNA 1: AGAAGTGTGATATTATAACATTTCATGACTA DNA 2: TAGTCATGAAATGTTATAATATCACACTTCT	binds	binds			
22-bp truncated znuCB DNA (one dyad) (dsDNA) DNA 1: AGAAGTGTGATATTATAACATT DNA 2: AATGTTATAATATCACACTTCT			binds	binds	binds
